Patent US8124835B2, “Acyl-coa-dependent diacylglycerol acyltransferas 1 (DGAT1) gene from Tropaeolum majus, protein encoded thereby and uses thereof” (National Research Council of Canada, priority 2006, dated 2012)

Columns and labels:
[1] = system: Arabidopsis mutant line AS11; assay: Complementation of Arabidopsis AS11 DGAT mutant by seed-specific expression of TmDGAT1; type: in vivo, Arabidopsis thaliana; settings: homozygous T3 seed lines, napin promoter
Description: FIG. 9. Complementation of A. thaliana AS11 mutant seed oil and fatty acid profile by expression of TmDGAT1. Transformation of Arabidopsis mutant line AS11 with the TmDGAT1 cDNA under the control of a napin promoter leads to a restoration of (A) fatty acid composition profile of the transgenic lines and (B) the WT level oil content. Total oil content (as percentage of mature seed dry weight) and fatty acid composition (% wt/wt) were determined on the seed oil extracted from T3 seeds of Arabidopsis pSE:WT and pSE:AS11 (empty plasmid) controls and from napin:TmDGAT1 AS11 transgenics lines.
The final binary vector (napin/DGAT/nos) was verified and electroporated into Agrobacterium tumefaciens cells strain GV3101 containing helper plasmid pMP90 (Koncz and Schell, 1986). Plasmid integrity was verified by DNA sequencing following its re-isolation from A. tumefaciens and transformation into E. coli. […]
The coding region of the TmDGAT1 (SEQ. ID. NO: 2) was cloned into a pSE vector behind the seed-specific napin promoter. […] At the same time several independent plasmid only control AS11 transgenic (pSE vector without DGAT1 insert) lines, as well as napin:TmDGAT1 in WT and pSE in WT transgenic lines were propagated and analyzed. […]

[2] = system: wild type (WT) Arabidopsis; assay: Over-expression of TmDGAT1 in wild-type Arabidopsis; type: in vivo, Arabidopsis thaliana
Description: FIG. 10. Over expression of the TmDGAT1 in Arabidopsis. Effect of transformation of Arabidopsis with the TmDGAT1 cDNA under the control of a napin promoter on (A) oil content and (B) average 1000-seed weight. Total oil content (as percentage of mature seed dry weight) and seed weight are shown for pSE (empty plasmid) in WT Arabidopsis (white bars), non-transformed WT Arabidopsis (black bars) and napin:TmDGAT1 transgenic homozygous T3 Arabidopsis lines (gray bars represent transgenic lines with a single insert and hatched bars represents transgenic lines with multiple inserts). (C) Fatty acid composition is shown for pSE (empty plasmid) in WT Arabidopsis and napin:TmDGAT1 transgenic homozygous T3 Arabidopsis lines. Homozygous T3 napin:TmDGAT1 lines were analyzed in triplicate, about 200 seeds per sample, accurately counted and weighed. For the plasmid only pSE in WT transgenic and non-transformed WT controls, ≧8 individual seed lots were similarly analyzed; the averaged values are presented.
FIG. 11. […]
Transgenic plants were selected and analyzed essentially as described previously (Jako et al., 2001; Mietkiewska et al., 2004). […]
Segregation analyses were performed to further confirm and select those transformants containing a single copy of the inserted fragment. […] Plants that contained the insertion (as shown by the presence of a PCR product from a napin/NOS junction using NN3 primer (5′-[…]-3′; SEQ ID NO: 22) and NN4 primer (5′-[…]-3′; SEQ ID NO: 23) and that carry a single locus insertion (as determined by a 3:1 segregation ratio of T2 seeds on kanamycin) were identified. Southern analyses were performed to further confirm and select those transformants containing single vs. multiple copies of the inserted fragment. DNA samples were digested with restriction enzymes KpnI (or BglII), resolved by electrophoresis on a 1% (w/v) agarose gel, and Southern blotting performed using a nylon filter (Hybond N+, Amersham) according to Sambrook et al. (1989). […]

B1: TmDGAT1: Tropaeolum majus acyl-CoA-dependent diacylglycerol acyltransferase 1, 518 amino acids (SEQ ID NO: 3), encoded by ORF SEQ ID NO: 2 (protein, listed as Tropaeolum majus)
chain: MAVAESSQNTTTMSGHGDSDLNNFRRRKPSSSVIEPSSSGFTSTNGVPATGHVAENRDQDRVGAMENATGSVNLIGNGGGVVIGNEEKQVGETDIRFTYRPSFPAHRRVRESPLSSDAIFKQSHAGLFNLCIVVLIAVNSRLIIENLMKYGWLIDTGFWFSSRSLGDWSIFMCCLTLPIFPLAAFIVEKLVQRNHISELVAVLLHVIVSTAAVLYPVIVILTCDSVYMSGVVLMLFGCIMWLKLVSYAHTSSDIRTLAKSGYKGDAHPNSTIVSCSYDVSLKSLAYFMVAPTLCYQPSYPRSSCIRKGWVVRQFVKLIVFIGLMGFIIEQYINPIVRNSKHPLKGDFLYAIERVLKLSVPNLYVWLCMFYSFFHLWLNILAELLRFGDREFYKDWWNAKTVAEYWKMWNMPVHRWMVRHLYFPCLRNGIPKEGAIIIAFLVSGAFHELCIAVPCHVFKLWAFIGIMFQVPLVLITNYLQEKFSNSMVGNMIFWFIFCILGQPMCVLLYYHDLINLKEK
TAG levels of AS11 seed after expression [1]: at least as high as that found in wild type Arabidopsis | fatty acid composition of AS11 seed oil after expression [1]: restoring the proportions of 18:1, 20:1 and 18:3 to give a WT profile | net increase in oil content ([2]; best line (TD/WT 13-6)): 44% | increase in DGAT activity ([2]; best line (TD/WT 13-6), mid-developing seed): two-fold | increase in total proportion of mono-unsaturated fatty acids (18:1+20:1) in seed TAGs ([2]; data not shown): 2-3%
